From US20260028391A1 (HUMABS BIOMED, published 2026)
Positions count from the first letter of the chain named.

B1: MPK176-v1.3 (antibody, V domains shown)
VH: QVQLVQSGAEVKKPGASVRVSCKASGYTLTAYGISWVRQAPGQGLEWMGWISPKHGNTHYAQRFQGRVTMTTDTSTSTAYMELRSLRPDDTAVYFCAREGVDIMAVPWYFDYWGQGTLVAVSS
VL: SYVLTQPPSVSVAPGQTARISCGGNNIGSKSVHWYQQKPGQAPVVVVYDDSKRPSGIPERFSGSNSGNTATLTISGVEAGDEADYFCQVWDSATDHWVFGGGTKLTVL
B2: MPK65-v2-v1.2 (antibody, V domains shown)
VH: QVPLVQSGAEVKKPGESLKISCKGSGYSFINYWIGWVRQMPGKGLEWMGVIYPFDSDTKYSPSFQGHVTISADKSSNTAYVQWSSLKASDTAMYYCARFTFGIAVVTDDVSGEGQAFEIWGQGTMVTVSS
VL: QIVMMQSPATLSVSPGERATLSCRASQSVAGNLAWYQQRPGQAPRLLIYGASTRATGVPARFSGSGSETEFTLTISSLQSEDFAVYYCHQYSNLPQAFGQGTRLDIK
B3: MPK201-v1.2 (antibody, V domains shown)
VH: EVQLVQSGAEVKKPGESLKISCQGSGYSFINYWIGWVRQKPGKGLEWMGIIYPFDSETKYSPSFQGHVTFSADKSINTAYVQWSSLRASDTAMYYCARFTFGLAVTTADVSGEGQAFEIWGQGTMVTVSS
VL: B2 VL with I48V, T56S, Q90H, N93D
B4: MPK201-v4.1 (antibody, V domains shown)
VH: B3 VH with E1Q, N31S
VL: B2 VL with Q1E, I48V, T56S, Q90H, N93D, L94W
B5: MPK204 (antibody, V domains shown)
VH: QVQLVESGGGLVKPGGSLRLSCEASGLSLSGYYMIWIRQAPGKGLEWISSISSSSNYIDYADSVKGRFTISRHNGQNTLYLQMNSLRVEDTAVYYCATEQTPSPGPFDLWGQGTLVTVSS
VL: QSVLTQPPSVSGAPGQRVTISCTGTSSNIGTGYDVHWYQQFPGTSPKLLIYRNTNRPSGVPDRFSGSKSGSSASLAIAGLQAEDEADYYCQSYDRSVSGWVFGGGTKLTVL
B6: MPK133 (antibody, V domains shown)
VH: QVQLVQSGGGLVKPGGSLRLSCAASEFSFSGYFMIWIRQAPGKGLEWISYISGSSTYTNYADSVKGRFTISRDNAQNTLYLEMNSLRAEDTGVYYCATEQVPSPGPFDLWGQGTLVTVSS
VL: B5 VL with T25S, T31A, T44R, K47T, K68Q, A78T, S96T, V97L, V101A, L108V

What follows are binders tested against T1, RSV-A F (RSV A) (assay: BLI).
T1 construct: also called RSV F A

Row | Binder | Kd [nM]
1 | B1 | 0.136
2 | B2 | 0.205
3 | B3 | 0.211
4 | B4 | 0.292

Each binder was assayed against T2, RSV-B F (RSV B) (assay: BLI).
T2 construct: also called RSV F B

Row | Binder | Kd [nM]
5 | B1 | 0.0256
6 | B2 | 0.581
7 | B3 | 0.161
8 | B4 | 0.552

These binders were tested against fusion glycoprotein of the RSV used in the neutralization assay of Example 1 (respiratory syncytial virus (strain not …)) (assay: cell-based or functional assay).

Row | Binder | RSV Neutralization - IC50 [ng/mL]
9 | B5 | 12.1
10 | B6 | 21.1

Each binder was assayed against fusion glycoprotein of the MPV D280 used in the neutralization assay of Example 3 (metapneumovirus (strain )) (assay: cell-based or functional assay).

Row | Binder | MPV D280 Neutralization - IC50 [ng/mL]
11 | B5 | 6
12 | B6 | 3.5

These binders were tested against RSV A fusion glycoprotein (F), virus of the neutralisation assays of Tables 54 and 57 (RSV A) (assay: cell-based or functional assay).

Row | Binder | IC50, neutralization of RSVA [ng/mL]
13 | B1 | 3.94
14 | B2 | 4.38
15 | B3 | 2.88
16 | B4 | 4.35

What follows are binders tested against T3, RSV F A, A2 Ref (RSV A, strain A2, UniProt P03420 26-574) (assay: FACS, % binding to RSV F A variants).
T3 construct: whole, on cells

Row | Binder | % binding [%]
17 | B1 | 78.1
18 | B2 | 56
19 | B3 | 66.9
20 | B4 | 54.1

These binders were tested against T4, RSV F A S443P-K445N (RSV A, strain A2, UniProt P03420 26-574) (assay: FACS, % binding to RSV F A variants).
T4 construct: whole, on cells

Row | Binder | % binding [%]
21 | B1 | 0.036
22 | B2 | 33.5
23 | B3 | 36
24 | B4 | 2700

What follows are binders tested against T5, RSV F A G446E (RSV A, strain A2, UniProt P03420 26-574) (assay: FACS, % binding to RSV F A variants).
T5 construct: whole, on cells

Row | Binder | % binding [%]
25 | B1 | 0.017
26 | B2 | 25.4
27 | B3 | 29
28 | B4 | 18

The binders below were run against T6, RSV F A L203I (RSV A, strain A2, UniProt P03420 26-574) (assay: FACS, % binding to RSV F A variants).
T6 construct: whole, on cells

Row | Binder | % binding [%]
29 | B1 | 56.1
30 | B2 | 18
31 | B3 | 40
32 | B4 | 13.1

What follows are binders tested against T7, RSV F B, B Ref (RSV B) (assay: FACS, % binding to RSV F B variants).
T7 construct: whole, on cells

Row | Binder | % binding [%]
33 | B1 | 39.9
34 | B2 | 56.4
35 | B3 | 61.3
36 | B4 | 51.9

These binders were tested against T8, RSV F B K68N-N201S (RSV B) (assay: FACS, % binding to RSV F B variants).
T8 construct: whole, on cells

Row | Binder | % binding [%]
37 | B1 | 60
38 | B2 | 30.8
39 | B3 | 47.3
40 | B4 | 30

What follows are binders tested against T9, RSV F B K68N-N208S (RSV B) (assay: FACS, % binding to RSV F B variants).
T9 construct: whole, on cells

Row | Binder | % binding [%]
41 | B1 | 57.9
42 | B2 | 0.047
43 | B3 | 12.1
44 | B4 | 0.048

These binders were tested against T10, RSV F B N201S (RSV B) (assay: FACS, % binding to RSV F B variants).
T10 construct: whole, on cells

Row | Binder | % binding [%]
45 | B1 | 60.2
46 | B2 | 35.9
47 | B3 | 47.7
48 | B4 | 33

What follows are binders tested against T11, RSV F B N208D (RSV B) (assay: FACS, % binding to RSV F B variants).
T11 construct: whole, on cells

Row | Binder | % binding [%]
49 | B1 | 53.6
50 | B2 | 0.47
51 | B3 | 0.015
52 | B4 | 0.018

Each binder was assayed against T12, RSV F B N208S (RSV B) (assay: FACS, % binding to RSV F B variants).
T12 construct: whole, on cells; also called mutant N208S

Row | Binder | % binding [%]
53 | B1 | 60.4
54 | B2 | 0.041
55 | B3 | 14.4
56 | B4 | 0.016

The binders below were run against T13, RSV F B S443P (RSV B) (assay: FACS, % binding to RSV F B variants).
T13 construct: whole, on cells; also called mutant S443P

Row | Binder | % binding [%]
57 | B1 | 33.8
58 | B2 | 33.8
59 | B3 | 45.8
60 | B4 | 31.5
